Where no end group is shown, it is not given here. [ ]: non-standard residue; d: D form. Aib = CC(C)(N)C(=O)O
B1: Compound A1 (peptide)
peptide: YSHGTFTSDYSKYLD[Aib]KYAQEFV[Aib]WLEDEPSSGAPPPS-OH
modifications: N-terminus assumed
SMILES: CC(C)C[C@H](NC(=O)[C@H](Cc1ccc(O)cc1)NC(=O)[C@H](CCCCN)NC(=O)[C@H](CO)NC(=O)[C@H](Cc1ccc(O)cc1)NC(=O)[C@H](CC(=O)O)NC(=O)[C@H](CO)NC(=O)[C@@H](NC(=O)[C@H](Cc1ccccc1)NC(=O)[C@@H](NC(=O)CNC(=O)[C@H](Cc1c[nH]cn1)NC(=O)[C@H](CO)NC(=O)[C@@H](N)Cc1ccc(O)cc1)[C@@H](C)O)[C@@H](C)O)C(=O)N[C@@H](CC(=O)O)C(=O)NC(C)(C)C(=O)N[C@@H](CCCCN)C(=O)N[C@@H](Cc1ccc(O)cc1)C(=O)N[C@@H](C)C(=O)N[C@@H](CCC(N)=O)C(=O)N[C@@H](CCC(=O)O)C(=O)N[C@@H](Cc1ccccc1)C(=O)N[C@H](C(=O)NC(C)(C)C(=O)N[C@@H](Cc1c[nH]c2ccccc12)C(=O)N[C@@H](CC(C)C)C(=O)N[C@@H](CCC(=O)O)C(=O)N[C@@H](CC(=O)O)C(=O)N[C@@H](CCC(=O)O)C(=O)N1CCC[C@H]1C(=O)N[C@@H](CO)C(=O)N[C@@H](CO)C(=O)NCC(=O)N[C@@H](C)C(=O)N1CCC[C@H]1C(=O)N1CCC[C@H]1C(=O)N1CCC[C@H]1C(=O)N[C@@H](CO)C(=O)O)C(C)C
B2: Compound A1 (peptide)
peptide: YSHGTFTSDYSKYLD[Aib]KYAQEFV[Aib]WLEDEPSSGAPPPS-OH
modifications: N-terminus assumed
SMILES: CC(C)C[C@H](NC(=O)[C@H](Cc1ccc(O)cc1)NC(=O)[C@H](CCCCN)NC(=O)[C@H](CO)NC(=O)[C@H](Cc1ccc(O)cc1)NC(=O)[C@H](CC(=O)O)NC(=O)[C@H](CO)NC(=O)[C@@H](NC(=O)[C@H](Cc1ccccc1)NC(=O)[C@@H](NC(=O)CNC(=O)[C@H](Cc1c[nH]cn1)NC(=O)[C@H](CO)NC(=O)[C@@H](N)Cc1ccc(O)cc1)[C@@H](C)O)[C@@H](C)O)C(=O)N[C@@H](CC(=O)O)C(=O)NC(C)(C)C(=O)N[C@@H](CCCCN)C(=O)N[C@@H](Cc1ccc(O)cc1)C(=O)N[C@@H](C)C(=O)N[C@@H](CCC(N)=O)C(=O)N[C@@H](CCC(=O)O)C(=O)N[C@@H](Cc1ccccc1)C(=O)N[C@H](C(=O)NC(C)(C)C(=O)N[C@@H](Cc1c[nH]c2ccccc12)C(=O)N[C@@H](CC(C)C)C(=O)N[C@@H](CCC(=O)O)C(=O)N[C@@H](CC(=O)O)C(=O)N[C@@H](CCC(=O)O)C(=O)N1CCC[C@H]1C(=O)N[C@@H](CO)C(=O)N[C@@H](CO)C(=O)NCC(=O)N[C@@H](C)C(=O)N1CCC[C@H]1C(=O)N1CCC[C@H]1C(=O)N1CCC[C@H]1C(=O)N[C@@H](CO)C(=O)O)C(C)C
B3: Compound A5 (peptide)
peptide: YSHGTFTSDYSKYLDSARAQEFVKWLEDEPSSGAPPPS-NH2
B4: Compound A4 (peptide)
peptide: YSHGTFTSDYSKYLD[Aib]KRAQEFVIWLEDEPSSGAPPPS-OH
modifications: N-terminus assumed
SMILES: CC[C@H](C)[C@H](NC(=O)[C@@H](NC(=O)[C@H](Cc1ccccc1)NC(=O)[C@H](CCC(=O)O)NC(=O)[C@H](CCC(N)=O)NC(=O)[C@H](C)NC(=O)[C@H](CCCNC(=N)N)NC(=O)[C@H](CCCCN)NC(=O)C(C)(C)NC(=O)[C@H](CC(=O)O)NC(=O)[C@H](CC(C)C)NC(=O)[C@H](Cc1ccc(O)cc1)NC(=O)[C@H](CCCCN)NC(=O)[C@H](CO)NC(=O)[C@H](Cc1ccc(O)cc1)NC(=O)[C@H](CC(=O)O)NC(=O)[C@H](CO)NC(=O)[C@@H](NC(=O)[C@H](Cc1ccccc1)NC(=O)[C@@H](NC(=O)CNC(=O)[C@H](Cc1c[nH]cn1)NC(=O)[C@H](CO)NC(=O)[C@@H](N)Cc1ccc(O)cc1)[C@@H](C)O)[C@@H](C)O)C(C)C)C(=O)N[C@@H](Cc1c[nH]c2ccccc12)C(=O)N[C@@H](CC(C)C)C(=O)N[C@@H](CCC(=O)O)C(=O)N[C@@H](CC(=O)O)C(=O)N[C@@H](CCC(=O)O)C(=O)N1CCC[C@H]1C(=O)N[C@@H](CO)C(=O)N[C@@H](CO)C(=O)NCC(=O)N[C@@H](C)C(=O)N1CCC[C@H]1C(=O)N1CCC[C@H]1C(=O)N1CCC[C@H]1C(=O)N[C@@H](CO)C(=O)O
B5: Compound A3 (peptide)
peptide: YSQGTFTSDYSKYLDAARAQEFVKWLEDEPKSKSPPPS-NH2
B6: Compound A2 (peptide)
peptide: YSHGTFTSDYSKYLD[Aib]KSAQEFV[Aib]WLEDEPSSGAPPPS-OH
modifications: N-terminus assumed
SMILES: CC(C)C[C@H](NC(=O)[C@H](Cc1ccc(O)cc1)NC(=O)[C@H](CCCCN)NC(=O)[C@H](CO)NC(=O)[C@H](Cc1ccc(O)cc1)NC(=O)[C@H](CC(=O)O)NC(=O)[C@H](CO)NC(=O)[C@@H](NC(=O)[C@H](Cc1ccccc1)NC(=O)[C@@H](NC(=O)CNC(=O)[C@H](Cc1c[nH]cn1)NC(=O)[C@H](CO)NC(=O)[C@@H](N)Cc1ccc(O)cc1)[C@@H](C)O)[C@@H](C)O)C(=O)N[C@@H](CC(=O)O)C(=O)NC(C)(C)C(=O)N[C@@H](CCCCN)C(=O)N[C@@H](CO)C(=O)N[C@@H](C)C(=O)N[C@@H](CCC(N)=O)C(=O)N[C@@H](CCC(=O)O)C(=O)N[C@@H](Cc1ccccc1)C(=O)N[C@H](C(=O)NC(C)(C)C(=O)N[C@@H](Cc1c[nH]c2ccccc12)C(=O)N[C@@H](CC(C)C)C(=O)N[C@@H](CCC(=O)O)C(=O)N[C@@H](CC(=O)O)C(=O)N[C@@H](CCC(=O)O)C(=O)N1CCC[C@H]1C(=O)N[C@@H](CO)C(=O)N[C@@H](CO)C(=O)NCC(=O)N[C@@H](C)C(=O)N1CCC[C@H]1C(=O)N1CCC[C@H]1C(=O)N1CCC[C@H]1C(=O)N[C@@H](CO)C(=O)O)C(C)C

What was measured:
Assay in all cases: cell-based or functional assay
[1] = biological target: human GLP-1 receptor (GLP-1R) (human, UniProt P43220 24-463)
Target sequence in this assay (P43220 24-463): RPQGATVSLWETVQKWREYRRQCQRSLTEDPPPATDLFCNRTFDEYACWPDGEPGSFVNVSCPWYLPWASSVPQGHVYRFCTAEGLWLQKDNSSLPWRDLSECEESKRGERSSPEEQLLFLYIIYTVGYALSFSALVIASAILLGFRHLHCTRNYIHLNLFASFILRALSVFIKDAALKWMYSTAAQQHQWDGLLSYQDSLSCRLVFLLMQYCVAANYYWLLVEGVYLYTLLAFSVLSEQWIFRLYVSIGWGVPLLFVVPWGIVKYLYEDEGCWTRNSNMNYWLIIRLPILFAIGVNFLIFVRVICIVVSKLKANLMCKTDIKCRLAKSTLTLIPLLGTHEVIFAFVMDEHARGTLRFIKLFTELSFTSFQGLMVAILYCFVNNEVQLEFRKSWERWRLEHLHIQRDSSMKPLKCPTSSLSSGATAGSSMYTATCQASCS

[2] = biological target: human glucagon receptor (GCGR) (human, UniProt P47871 26-477)
[3] = biological target: T1, human glucagon receptor (GCGR) (human, UniProt P47871 26-477); remark: listed apart in the source
[4] = biological target: T2, human GLP-1 receptor (GLP-1R) (human, UniProt P43220 24-463); remark: listed apart in the source
T2 sequence (P43220 24-463): as above

hGIPR = biological target: T3, hGIPR (human, UniProt P48546 22-466, limits assumed)
T3 sequence (looked up): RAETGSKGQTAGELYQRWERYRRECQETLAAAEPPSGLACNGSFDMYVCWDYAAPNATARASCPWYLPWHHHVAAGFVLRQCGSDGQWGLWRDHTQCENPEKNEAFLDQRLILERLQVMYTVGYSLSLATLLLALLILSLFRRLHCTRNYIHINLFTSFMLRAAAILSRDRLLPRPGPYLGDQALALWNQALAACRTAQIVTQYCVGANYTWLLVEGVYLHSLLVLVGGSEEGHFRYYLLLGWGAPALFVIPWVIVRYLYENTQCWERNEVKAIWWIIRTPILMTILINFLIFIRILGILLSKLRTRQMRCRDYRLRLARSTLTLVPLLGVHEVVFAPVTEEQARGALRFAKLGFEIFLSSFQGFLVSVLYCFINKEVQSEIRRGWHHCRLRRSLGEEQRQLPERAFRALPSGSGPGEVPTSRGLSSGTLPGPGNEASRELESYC

[5] = biological target: T1, human glucagon receptor (GCGR); remark: listed apart in the source
[6] = biological target: T2, human GLP-1 receptor (GLP-1R); remark: listed apart in the source

Row | Binder | hGLP1 pEC50 (cAMP) mean (n = 9): 11 point curve starting at 500 uM [1] [pEC50] | hGCGR pEC50 (cAMP) mean (n = 9): 11 point curve starting at 1 uM [2] [pEC50] | Human in vitro Potency (pEC50), hGCGR [3] [pEC50] | Human in vitro Potency (pEC50), hGLP-1R [4] [pEC50] | Human in vitro Potency (pEC50), hGIPR (hGIPR) [pEC50] | GluR pEC 50 [5] [pEC50] | GLP-1R pEC 50 [6] [pEC50]
1 | B1 | 5.2 | 12.3 | – | – | – | – | –
2 | B2 | – | – | 12.3 | 5.2 | < 5 | 10.6 | < 6
3 | B3 | 5.8 | 11.8 | – | – | – | – | –
4 | B4 | < 5 | 11.8 | – | – | – | – | –
5 | B5 | 6.7 | 12.1 | – | – | – | – | –
6 | B6 | 5.4 | 11.7 | – | – | – | – | –

Reference: patent US20180009871A1 (INTARCIA THERAPEUTICS, published 2018)
